Data set [1] addresses T1, hLon (human Lon protease) (Homo sapiens, UniProt P36776 68-959).
T1 sequence: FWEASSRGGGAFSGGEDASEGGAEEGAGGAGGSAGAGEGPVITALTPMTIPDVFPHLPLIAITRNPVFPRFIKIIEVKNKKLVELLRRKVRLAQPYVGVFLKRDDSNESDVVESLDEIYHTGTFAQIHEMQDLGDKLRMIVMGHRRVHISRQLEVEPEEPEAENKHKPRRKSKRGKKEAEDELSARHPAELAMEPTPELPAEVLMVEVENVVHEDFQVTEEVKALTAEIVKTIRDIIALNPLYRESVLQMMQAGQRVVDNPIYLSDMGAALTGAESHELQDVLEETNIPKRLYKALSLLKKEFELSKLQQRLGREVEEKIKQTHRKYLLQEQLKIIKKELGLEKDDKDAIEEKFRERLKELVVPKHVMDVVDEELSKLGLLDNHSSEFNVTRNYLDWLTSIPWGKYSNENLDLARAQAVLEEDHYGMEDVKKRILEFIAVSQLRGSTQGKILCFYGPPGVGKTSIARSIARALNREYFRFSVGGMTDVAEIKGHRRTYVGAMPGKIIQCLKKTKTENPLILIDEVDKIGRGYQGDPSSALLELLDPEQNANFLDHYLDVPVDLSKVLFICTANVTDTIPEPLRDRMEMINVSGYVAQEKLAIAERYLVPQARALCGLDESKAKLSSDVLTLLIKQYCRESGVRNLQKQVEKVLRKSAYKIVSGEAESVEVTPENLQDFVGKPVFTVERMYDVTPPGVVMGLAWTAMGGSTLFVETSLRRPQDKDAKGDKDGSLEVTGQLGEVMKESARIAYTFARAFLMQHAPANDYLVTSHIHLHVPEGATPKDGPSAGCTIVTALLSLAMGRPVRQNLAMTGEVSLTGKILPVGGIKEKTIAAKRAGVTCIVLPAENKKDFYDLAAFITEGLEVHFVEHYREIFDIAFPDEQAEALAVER
The data set can be described thus: ITC. In general terms: ITC needs no label: the signal is the heat of the interaction.

In data set [2] the target is T1, hLon (human Lon protease). The data set can be described thus: ITC. This is another data set of the same source.
The target of data set [3] is T1, hLon (human Lon protease). Put plainly: ITC. The source holds these as a separate data set.
The target in data set [4] is T1, hLon (human Lon protease). Put plainly: ITC. This is another data set of the same source.
Data set [5] concerns the target T1, hLon (human Lon protease). The data set can be described thus: ITC. This is another data set of the same source.
The target in data set [6] is T1, hLon (human Lon protease). The data set can be described thus: ITC. The source holds these as a separate data set.
In data set [7] the target is T1, hLon (human Lon protease). Put plainly: competition.

Like-named read-outs stand apart in the source and are kept apart here.

A word on the Kd: it is the constant that tells how readily two partners part at equilibrium.

In the case of AATAATGTGTTAGTTGGGGGGTGA (structured_DNA) [LSPas], the Ka in data set [1] was 2.6 ± 0.72 10^5 M^-1; in data set [2], 3.03 ± 0.83 10^5 M^-1; in data set [3], 2.11 ± 0.11 10^5 M^-1; in data set [4], 2.45 ± 0.43 10^5 M^-1.
With TGGGGGGT (structured_DNA) [TG6T], the Ka in data set [5] was 1.24 ± 0.58 10^5 M^-1; in data set [1] it was 3.48 ± 0.36 10^5 M^-1; in data set [2], 1.36 ± 0.22 10^5 M^-1; in data set [4], 1.35 ± 0.89 10^5 M^-1. Further, the Kd in data set [6] came to 7.35 µM.
GTGTTAGTTGGGGGGTGA (structured_DNA) [LSPas18]: in data set [7], the binding result is given as “binds”.
